Test results: publication PMC11436023

What was measured:
[1] = target: CAP255 gp140 SpyTag (HIV-1 subtype C (patient CAP255)); experiment: SEC + native gel or EMSA; lectin-purified CAP255 gp140 SpyTag on HiLoad 16/600 Superdex 200 pg; fractions on Blue NativePAGE 3-12% Bis-Tris gels, Coomassie
[2] = target: SpyCatcher mi3 nanoparticle; experiment: negative stain electron microscopy; NPs alone or after coupling, on glow-discharged carbon-coated grids, 2% uranyl acetate; 2D classification and ~20 Å 3D maps with icosahedral symmetry imposed
[3] = target: SpyCatcher mi3 nanoparticle; experiment: cryo-EM structure; CAP255 gp140 SpyTag-SpyCatcher mi3 NPs; whole NP 9.4 Å (icosahedral), masked mi3 5.4 Å, single Env trimer-SpyCatcher 17.7 Å without symmetry
[4] = target: SpyCatcher mi3 nanoparticle; experiment: covalent SpyTag-SpyCatcher coupling, read by SDS-PAGE; MBP SpyTag mixed with SpyCatcher mi3 NPs at 1:1 and 1:2 molar ratios, 4 °C overnight, TBS (25 mM Tris-HCl, 300 mM NaCl, pH 8.5); Coomassie-stained SDS-PAGE, band intensities quantified

Row | Substance | stoichiometry N [1] | stoichiometry N (Env trimers per NP) [2] | stoichiometry N (Env trimers per NP) [3] | coupling efficiency [4] [%] | stoichiometry N (MBP monomers per NP) [4]
1 | CAP255 gp140 SpyTag (domain or fragment) | 3 | 12 | 12 |  | 
2 | MBP SpyTag |  |  |  | 100 | 60
